Sequences and labels used below:
B1: TRIM63 (parent)
chain: QRITQEQEKKLSFIEALIQQYQEQ

This passage reports protein stability index results from the supplement of paper PMC10567573.
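Also: lentivirally expressed fusions sorted by FACS into six bins by GFP to DsRed ratio, PSI derived from sequencing read proportions per bin multiplied by bin number.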

The variants in the data set derive from B1. Nature of the data set: protein stability index of a GFP-peptide fusion (GPS, HEK-293T) (PSI 1-6); higher = more stable. Conditions: c terminus: a fixed tail appended.
QRITQEQEKKLSFICALIQQYQEQ [E15C]: the protein stability index was 1.44.
To QRITQEQEKKLSFIRALIQQYQEQ [E15R] belongs 2.16.
To QRITQEQEKGLSFIEALIQQYQEQ [K10G] belongs 3.58; to QRITQEQEKYLSFIEALIQQYQEQ [K10Y], 1.73.
As for QRITQEQEKPLSFIEALIQQYQEQ [K10P], the figure is 2.77; as for QRITQEQEKELSFIEALIQQYQEQ [K10E], 3.
For the variant QRITQEQEKWLSFIEALIQQYQEQ [K10W], the protein stability index is 2.05.
To QRITQEQEKFLSFIEALIQQYQEQ [K10F] belongs 2.1; to QRITQEQEKDLSFIEALIQQYQEQ [K10D], 3.67.
As for QRITQEQEKCLSFIEALIQQYQEQ [K10C], the figure is 2.04; as for QRITQEQEKLLSFIEALIQQYQEQ [K10L], 1.72; as for QRITQEQEKTLSFIEALIQQYQEQ [K10T], 2.2.
Regarding QRITQEQEKILSFIEALIQQYQEQ [K10I], the protein stability index was determined as 2.57.
With QRITQEQEKVLSFIEALIQQYQEQ [K10V], the protein stability index was found to be 2.02.
To QRITQEQEKSLSFIEALIQQYQEQ [K10S] belongs 2.73; to QRITQEQEKRLSFIEALIQQYQEQ [K10R], 2.47; to QRITQEQEKALSFIEALIQQYQEQ [K10A], 2.1.
As for QRITQEQEKHLSFIEALIQQYQEQ [K10H], the figure is 2.7; as for QRITQEQEKNLSFIEALIQQYQEQ [K10N], 3.
To QRITQEQEKQLSFIEALIQQYQEQ [K10Q] belongs 1.95; to QRITQEQEKKLLFIEALIQQYQEQ [S12L], 2.39; to QRITQEQEKKLQFIEALIQQYQEQ [S12Q], 2.62.
For the variant QRITQEQEKKLIFIEALIQQYQEQ [S12I], the protein stability index was 2.12.
As for QRITQEQEKKLFFIEALIQQYQEQ [S12F], the figure is 2.56.
For the variant QRITQEQEKKLDFIEALIQQYQEQ [S12D], the protein stability index came out at 2.86.
As for QRITQEQEKKLKFIEALIQQYQEQ [S12K], the figure is 1.91.
To QRITQEQEKKLMFIEALIQQYQEQ [S12M] belongs 1.86; to QRITQEQEKKLHFIEALIQQYQEQ [S12H], 2.9; to QRITQEQEKKLYFIEALIQQYQEQ [S12Y], 1.85.
On to QRITQEQEKKLAFIEALIQQYQEQ [S12A], for which the protein stability index stood at 3.19.
To QRITQEQEKKLPFIEALIQQYQEQ [S12P] belongs 3.91.
As for QRITQEQEKKLVFIEALIQQYQEQ [S12V], the figure is 1.81; as for QRITQEQEKKLCFIEALIQQYQEQ [S12C], 2.25.
As for QRITQEQEKKLGFIEALIQQYQEQ [S12G], the figure is 2.71.
With QRITQEQEKKLWFIEALIQQYQEQ [S12W], the protein stability index turned out to be 1.57.
For QRITQEQEKKLNFIEALIQQYQEQ [S12N], the protein stability index is 2.74.
With QRITQEQEKKLTFIEALIQQYQEQ [S12T], the protein stability index is 3.23.
For the variant QRITQEEEKKLSFIEALIQQYQEQ [Q7E], the protein stability index is 2.76.
As for QRITQEGEKKLSFIEALIQQYQEQ [Q7G], the figure is 1.83; as for QRITQEDEKKLSFIEALIQQYQEQ [Q7D], 3.02.
To QRITQETEKKLSFIEALIQQYQEQ [Q7T] belongs 3.54; to QRITQEREKKLSFIEALIQQYQEQ [Q7R], 2.29; to QRITQESEKKLSFIEALIQQYQEQ [Q7S], 2.86.
To QRITQEVEKKLSFIEALIQQYQEQ [Q7V] belongs 3.28.
Take QRITQELEKKLSFIEALIQQYQEQ [Q7L]: the protein stability index is 3.44.
To QRITQEKEKKLSFIEALIQQYQEQ [Q7K] belongs 1.96; to QRITQECEKKLSFIEALIQQYQEQ [Q7C], 2.83; to QRITQEYEKKLSFIEALIQQYQEQ [Q7Y], 2.12.
To QRITQEAEKKLSFIEALIQQYQEQ [Q7A] belongs 2.16; to QRITQEFEKKLSFIEALIQQYQEQ [Q7F], 2.02.
To QRITQENEKKLSFIEALIQQYQEQ [Q7N] belongs 3.1.
As to QRITQEWEKKLSFIEALIQQYQEQ [Q7W], the protein stability index stood at 3.76.
To QRITQEHEKKLSFIEALIQQYQEQ [Q7H] belongs 2.32.
As for QRITQEIEKKLSFIEALIQQYQEQ [Q7I], the figure is 4.42; as for QRITQEMEKKLSFIEALIQQYQEQ [Q7M], 2.46; as for QRITQEPEKKLSFIEALIQQYQEQ [Q7P], 2.31.
To QRITQEQEKKLSFIEQLIQQYQEQ [A16Q] belongs 1.83.
With QRITQEQEKKLSFIEYLIQQYQEQ [A16Y], the protein stability index amounted to 2.31.
To QRITQEQEKKLSFIELLIQQYQEQ [A16L] belongs 1.7; to QRITQEQEKKLSFIEVLIQQYQEQ [A16V], 1.76.
To QRITQEQEKKLSFIERLIQQYQEQ [A16R] belongs 2.63; to QRITQEQEKKLSFIECLIQQYQEQ [A16C], 2.46; to QRITQEQEKKLSFIEMLIQQYQEQ [A16M], 3.77.
As for QRITQEQEKKLSFIETLIQQYQEQ [A16T], the figure is 2.15.
QRITQEQEKKLSFIEGLIQQYQEQ [A16G]: the protein stability index is 3.33.
As for QRITQEQEKKLSFIEWLIQQYQEQ [A16W], the figure is 2.37.
As for QRITQEQEKKLSFIEHLIQQYQEQ [A16H], the figure is 2.45; as for QRITQEQEKKLSFIEPLIQQYQEQ [A16P], 4.08.
For QRITQEQEKKLSFIEKLIQQYQEQ [A16K], the protein stability index is 2.25.
To QRITQEQEKKLSFIEDLIQQYQEQ [A16D] belongs 3.16; to QRITQEQEKKLSFIEFLIQQYQEQ [A16F], 2.57.
To QRITQEQEKKLSFIESLIQQYQEQ [A16S] belongs 2.45; to QRITQEQEKKLSFIEILIQQYQEQ [A16I], 3.03; to QRITQEQEKKLSFIEELIQQYQEQ [A16E], 2.95.
As for QRITQEQEKKLSFIENLIQQYQEQ [A16N], the figure is 2.69.
Take QRITQEQEKKYSFIEALIQQYQEQ [L11Y]: the protein stability index was found to be 2.79.
With QRITQEQEKKKSFIEALIQQYQEQ [L11K], the protein stability index was found to be 1.56.
As for QRITQEQEKKPSFIEALIQQYQEQ [L11P], the figure is 2.78.
As for QRITQEQEKKDSFIEALIQQYQEQ [L11D], the figure is 3.94; as for QRITQEQEKKHSFIEALIQQYQEQ [L11H], 2.8.
Turning to QRITQEQEKKTSFIEALIQQYQEQ [L11T], the protein stability index was found to be 2.54.
As for QRITQEQEKKISFIEALIQQYQEQ [L11I], the figure is 2.64; as for QRITQEQEKKMSFIEALIQQYQEQ [L11M], 1.82; as for QRITQEQEKKSSFIEALIQQYQEQ [L11S], 2.63.
On to QRITQEQEKKASFIEALIQQYQEQ [L11A], for which the protein stability index was determined as 3.13.
QRITQEQEKKESFIEALIQQYQEQ [L11E]: the protein stability index amounted to 3.98.
As for QRITQEQEKKFSFIEALIQQYQEQ [L11F], the figure is 1.87; as for QRITQEQEKKNSFIEALIQQYQEQ [L11N], 2.79; as for QRITQEQEKKWSFIEALIQQYQEQ [L11W], 2.26.
To QRITQEQEKKVSFIEALIQQYQEQ [L11V] belongs 1.95; to QRITQEQEKKQSFIEALIQQYQEQ [L11Q], 3.08.
With QRITQEQEKKGSFIEALIQQYQEQ [L11G], the protein stability index came out at 2.53.
To QRITQEQEKKRSFIEALIQQYQEQ [L11R] belongs 2.24; to QRITQEQEKKCSFIEALIQQYQEQ [L11C], 2.35.
